Biological target: T1, vimentin in lupus nephritis kidney tissue (Homo sapiens, UniProt P08670)
T1 construct: endogenous vimentin of human lupus nephritis biopsies; vimentin-rich zones marked with the anti-vimentin antibody V9; also called Vim^hi zones of inflamed lupus kidney; source: endogenous, paraffin embedded human lupus kidney biopsies
Assay: immunostaining of cells or tissue; paraffin embedded lupus nephritis kidney biopsies, FLAG-tagged human IgG1 mAbs detected with rat anti-FLAG and Alexa Fluor 488 anti-rat IgG, co-stained with V9 and Hoechst; confocal microscopy, per field of view
Settings: one partner purified

T1 sequence (P08670 whole entry): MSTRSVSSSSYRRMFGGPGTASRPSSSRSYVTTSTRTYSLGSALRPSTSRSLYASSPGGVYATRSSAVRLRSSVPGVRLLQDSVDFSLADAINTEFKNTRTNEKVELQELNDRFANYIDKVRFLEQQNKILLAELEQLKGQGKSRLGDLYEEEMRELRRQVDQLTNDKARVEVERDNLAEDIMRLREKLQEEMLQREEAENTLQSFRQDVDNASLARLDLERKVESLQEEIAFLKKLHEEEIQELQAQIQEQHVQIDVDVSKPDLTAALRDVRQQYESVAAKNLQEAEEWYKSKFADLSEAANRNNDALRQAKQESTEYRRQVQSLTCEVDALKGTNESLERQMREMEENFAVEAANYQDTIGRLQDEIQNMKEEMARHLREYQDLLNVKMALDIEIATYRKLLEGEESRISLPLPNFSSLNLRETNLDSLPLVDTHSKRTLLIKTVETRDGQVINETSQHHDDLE

binding result: binds
B1: FLAG-tagged PB4rev (antibody, V domains shown)
VH: QVQLQESGPGLVKPSETLSLTCTVSGGSISSYYWSWIRQPAGKGLEWIGRIYTSGSTNYNPSLKSRVTMSVDTSKNQFSLKLSSVTAADTAVYYCARESRGAVLTGDYYYYYYMDVWGKGTTVTVSS
VL: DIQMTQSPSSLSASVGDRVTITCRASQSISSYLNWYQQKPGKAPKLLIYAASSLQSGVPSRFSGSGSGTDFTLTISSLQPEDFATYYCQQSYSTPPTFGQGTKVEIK
notes: as the heavy chain of m8; as the light chain of m8; also called PB4rev (FLAG); source: heavy chain vector FJ475055 with FLAG co-expressed with the light chain plasmid, purified with protein A; not shown: FLAG, C-terminal, kept

— paper PMC7731665 (Frontiers in Immunology, 2020)
